Experiment: soluble on expression in E. coli; label from the status in PepcDB or PDB records

Row | Sequence | soluble on expression in E. coli
1 | MGSDKIHHHHHHMSHEVDPRVDKTRRRLRQALITLLQTETVDNISVQKLTSTAAVTRGTFYLHYKDKPAFVDQALDDLVSELFETAIVTVSVGDIMTNPADPLQRVHVFSLSKALSYISQHAEAFETLLLDQRQLAVNQRINQQMTTWMTKFHRDFQDQFADLEVPVSIQIAYYVSATVGLITDWLANDMIYTPHYLTKCIKKMHHLMTVGSISFTDFFVK | not soluble
2 | AIAYTFDTTDHKSPCCNFQWYIFRKQGESRIITCELFGVIVSLENRWDWLEFMIDDSLQLTAFRCPKRDKLGMETLLQLGDVAQVTGNWKLSNGAFLNATKIAIHNNPDVECKYWLQQIQKYKSKVCELEIPSDWIRRQQRAHNLKTDAVLSFSAQVSTAAATCWKLWKKHFNQGGKISLQRLWEVIQRENCPKMQELSSCRRNQIVQLLIHLGYLIPLSKEPETYVLLIDDILDKQVMQIFNQNIASKTLSLREVAYRLEEYFHVEEISLERVEESILRLAYKEKVEQV | soluble
3 | MAEKRKLLAEIDKCFKKIDEGVELFEETMEKMHEANSDNQRDKYQDDLKKEIKKLQRLRDQVKNWQNASEIKDKDKLNSYRKLIEQRMEQFKDVERENKTKPHSKLGLSAEEKLDPKEKEKAETMDWIQHQIRSLNEEVDRTEMQLESLSNTDTGKGKRGKKEDAKTKNEREKRVEGLKHHLERINFHIEKLEICMRMISNESLNAKMVLETLKEPIETYVEMMNEEDSEEADNYDPDDAYDELNLEKLCQQIGGVNVASVDDEHRENGHELGIDTAESGAVSGSRHTSGENGQPPSPAGRRIVPLSMPSPHAVTPELKRLASKDSNVDRPRTPPVTPASAAPPPPGIPYNSVAAGRSTTTPVPSTPISANSPAPSLAQAAPIAAASPVFPPAAAAASKPVLAQSVSEMPQKKESITSTTSRGSAAAPATTTTTTTTTTSSEPAEVPLVVQQTVSETFVNGVDSPAAATRLTQQERQQQLQQQHHHQSTIIPTTPTTTTTSSSMLGGMMSTDDPAAALQAALNMAAASQQAVATGPKRAHIPAWLGASPLGRTSMTQEFDGQLAALELACAKATFPLDSEKPRNYLSKVSFPVPSWYGQTAPNTSDSLEYYLRLAPDTLFFIFYYMEGTRAQLLAAKALKKLSWRFHTKYLTWFQRHEEPKQITDDYEQGTYVYFDFEKWSQRKKESFTFEYKFLEDKEFD | not soluble
4 | TDKTFFDAKMEEQAKRHAQHNNTESNLEPDIKNAPGGIRDMNQIGWIAKRHFRVNRIYDLVHLGFITEYELKVLEEAESFLWEIRHHLHLLSKRDENRLLFDHQREIAAKFGYTRAEGQPVNFAVEQFMKRYYRTAQQVSTLNEMLLAYFNESVITPRLPNYERKIEEINENFKLVDGKLAVQHHKVFSENPSAILELFYLLANHPEIEGIRARTLRLLIMAAKRID | not soluble
5 | MSAAHKNLLAVWAKEPKDLVAVEKALNELTKVLSASSDLNDKQSALASKDLYEISVLLAILKHDFETFDDYINQMHTYYTMAPENSENKHLMTGLHLMFLLAANRLSDFHMLLEQIPQKEQTSNAYISTPVRIEQSLMEGAYNKVVLTEKNIPSPFYTIFIRIMLDTIRREIATSIEKSFKVLTAKDATVMLLFDNDEQMKKFGQERKWHLDGERYVFEIEVAQEKPVNLDTVRVATQTLFYAKQLEQIV | not soluble
6 | SNAMSSEELEQVWSNIKSEARALAECEPMLASFFHATLLKHENLGSALSYILANKLANPIMPAIAIREVVEEAYRSDAHMIVSAARDILAVRLRDPAVDKYSTPLLYLKGFHALQAYRIGHWLWAQDRKALAIYLQNQVSVAFGVDIHPAATIGCGIMLDHATGIVIGETAVVENDVSILQSVTLGGTGKTSGDRHPKIREGVMIGAGAKILGNIEVGRGAKIGAGSVVLQSVPAHTTAAGVPARIVGKPESDKPSLDMDQHFNGSIQGFEYGDGI | soluble
7 | MRVYRVKGEVLVAVCDSDIVGKTFREGDLKIEVKESFYGSEEVGEEEVKRALRNATIANITGKKAVELAARIGIIDRNRVLYIGGCPHAQMVVM | not soluble
8 | MSAVNGLVPSTIFDRINSDMDVSEEMEEIREVLYEMIKTNFPMGVAATHLSEKYHEEFVSKGLGRELPEDWIQQVTAAEEFEAQTRGPITILFVRLSNTSSFKRPPINSVNVRVISTDREPTADELKKIKQRKENEPTEHAKTLSQQSVALKEGSTVSIVYADSPKRFFIRALADDDQYEKIGTTLAEIYAQETPPSALDSRVAIYEIVAGGAYALQDSNGTWFRVIAKQPPQSGQVMCHFVDVGVCEKFPVAAIRLLPPAVHPVMSIGSMAREVRMDVSEEESLRLNNKFVDLTFETKDDGIQVPINLTLSKFDSSDSESLPVVDLQSSDGLSITEFLKKPSGVVRLSTPTKTTSPITPASASTSSLTCLFDKPATIQPMTVAQMPMSAFPANAIFAAGPTDISLRQLSLDPMPDYMYAKLKDECALPDSQLESSPDFGGFYAAFIDDRWERVQCIRASKIDKQAYCVYLLDVGAFQYVRKEAMRRLNSTSPFKKMLMFKCKIGGIKPVAGGEVWSRESHEAVREFFEAACGEPVVVEPTQPGWSQWKQLNAPAVPTCEARLSCCGRDIGDWLIACGLALPINAPIPSPNSQSLLTFVPTPINIVGRNI | not soluble
9 | MSLSKVYLVPTPIGNLGDITLRALEVLKNVDLIAAEDTRQTLKLLNHFEIKKPLISYHKHNEQGKGEEILRRVKEGTSVAIVSDAGTPGISDPGSVVVEKCIEEGIEFEVLPGATAFTTALIYSGLDTTKFMFKGFFPRENKDKRSFIEDIKDRTETIIIYESPYRILDTIDTLKEGLGNRKVAICRELTKLHEEIFRGTLEEAKIHFEENAPKGEFVCVISGKTDKEIEEENTSKWISMSIEEHIIHYIDNEGMKKKDAIKQVAKDRGVAKSEIYKFSLDEGHHHHHH | soluble
10 | MGSDKIHHHHHHMTVNDKKRLAIIGGGPGGLAAARVFSQSLPNFEIEIFVKDYDIGGVWHYPEQKSDGRVMYDHLETNISKKLMQFSGFPFEENVPLYPSRRNIWEYLKAYYKTFIANKDAISIHFSTEVTYLKKKNSQWEITSKDELRTTKSDFDFVIVASGHYSVPKLPTNIAGLDLWFDNKGAFHSKDFKNCEFAREKVVIVVGNGSSGQDIANQLTTVAKKVYNSIKEPASNQLKAKLIETVQTIDSADWKNRSVTLSDGRVLQNIDYIIFATGYYYSFPFIEPSVRLEVLGEGVTGDKHSSVNLHNLWEHMIYVKDPTLSFILTPQLVIPFPLSELQAAIMVEVFCKSLPITTTFDSNACGTHNFPKERTWNTMQNYRNY | not soluble
11 | MGSDKIHHHHHHMTQSPDLQAVLDYADAHMNDSLARLFDLVRIPSVSTVPAHAGDCRAAAQWLSDQLNDLGFDASVRPTGGHPMVVAHQTDADGPHVLFYGHYDVQPVVPLELWKTDPFEPTLEPQPNGDTHITGRGASDDKGQLLTFIEACRAWKAVTGRLPIKVSMLFEGEEESGSQSLGPFLEQTAEELRADVMMVCDTDMWDRDTPAITTMLRGLVGEEFTITTADRDLHSGMFGNAARNALQVASDAIAGLRGPDGGVTLPGFYDGVEDLAPEIKAQWKSLPFDQEGFLSDVGLSLPAGEDAYSIMEQIWARPSCEIHGVIGGYTDEGFKTVIPAKATAKVSFRLVAGQDPARIREAFRAHIRAYVPKDCSVEFTSHGASPALSLPLDSPYLTATREALSQEWGTEAALAGTGGSIPIVGEFKRQLGMDTLLVGFARFDNRIHSPNEKYDLSSFTGGIRSFVRVLAALSEIEAAAAP | not soluble
12 | MGSDKIHHHHHHMNGIGATPYSESQKFHIAAIILAAGFSLRMKSFKPLLPLGSASVIETAIQSFRKAGFMDIRVVLGHKAGELLPICDALGVQPILNEDYAEGMFSSVKAGVKSLGREVDGFFLLPADNPLIQADTLQRLYEGFNLGPGGIVYPVCQGKRGHPPLISRSYRDSILSWRGEGGLRALLEHYQADALEVGTEDQGVLLDMDTPEDYRTLLKHYGCAPTPTEFECYELLKGNNTPDQVIKHCETVARLSVFLGEQLSEAGLHLNRELLRTSALLHDIARLKPNHPQEGAKLTAAYPEVSAIIAAHMDCPWEPSQPLTEQEIVYLADKLVAKERIVSLQERFKGSVERHQNEPEVLEHVYRRFGQAYRIHDRVEEILGKSVQTLIKSNLGSDVHG | not soluble
13 | MQINKDELIKMGNHLKEARLSKQLTQEELARLSNISQATIVKYENGLRSISKKNDRILSDVLGAESFIKDMIQRKQQVLIDLEKYQTKNIFSREDLSKKLGIEISLLNKFLNQSRPLSKNAIVKITQLLSNEGKEILMDIKQEDGSFKLPIIDKIAMGKRIQEIRKNRGETLEKFGKNFTRPAGKNVVNRWEKGTNIPDIERLMNVAYLGKVAVPYILYGETFSKMLKKGSRISKFEKLDSFRMGLRLRKIRRDYRLEREDFGKFFSPPITKWSMDKYENGKDIPNTDRIIQYAYIGKVSLNFLIYGVN | not soluble
14 | MGSDKIHHHHHHMVIFTQVVECGSFSGAAIATGHSNSYISKTLNKLEARVGVRLLNRTTRSISLTPEGQVYYEQCQQLVLDAHDAVSLLTQSHIEPKGVLKISCPTSFAENHLQEVMSAFMHQYPEVNLVLDLNDRHVDLVQDGFDLVIRATDKLAESSLVCRKIYSCKAYTVASHDYLKRFGLPQSPEQLSEHQCICYSNLKQANKWIYSHSNGTDNQVEVKAKLLCNSASMELAMVLAGHGICRLPAFVMEKELQDNKLAILFNDYITPTIDVYAIYPSRKHLSPKVRCFIDLLVDKMPRSLL | not soluble
15 | MGSDKIHHHHHHMAKVRKEDKLPLRMKQLGKIYRLIEQFEEISRIDLSKLSQLAPATITSLTRELIEKKLVIERAVQNTENRGRPAVGLCVSPFYWQSLCATLTYDHFDILLCELDGTTIAQEVYPLDLSDLSSLEQMLPCYFEDFLSKVGTKLSRPITFSIAVAGKLHHLSGFLQRLGEIELNVDLTSLFAGYFDIPIIVTEYFETWLLAESTLGSVIGYDDVIFLQIDDVINLSVLSKGVILQSDHKTCMNIDQIIVPRLYPMQDKINQHLFELERYQIHNQLTYKAFCQFIDLYYPNNNLINTTEKINFLCKKAQLQDPLALEILANIADIIAYILSNLVNLFSPEKIMFTSRLLSVKHVFLNQINQRLAHYLHNSKICEVMTSQYEWNSHEVIAAAIKQKIYDGSLLVYMEKY | not soluble
16 | MTEETKPIKIAVIRCDIVSEACPGVGCFKAFNERKSYFKEYDEKAQMIAFFTCGGCSGRRVYRLLKALKKHNPDVVHLSSCMLMEDSYPRCPNIDTIRKTIQDAGIKVVEGTHH | not soluble
17 | DIQMTQSPSTLSASIGDRVTITCRASEGIYHWLAWYQQKPGKAPKLLIYKASSLASGAPSRFSGSGSGTDFTLTISSLQPDDFATYYCQQYSNYPLTFGGGTKLEIKRTVAAPSVFIFPPSDEQLKSGTASVVCLLNNFYPREAKVQWKVDNALQSGNSQESVTEQDSKDSTYSLSSTLTLSKADYEKHKVYACEVTHQGLSSPVTKS | soluble
18 | MNYSRIAEAIEYIRAHYKEQPGLDEVAEKVHLSPFHFQRIFTEWAGLEHHHHHH | not soluble
